Assay results published in patent US6869925 (Amgen, dated 2005).

Tests used:
[1] = target: SLPI binding sites on U937 cells (human monocyte cell line; intact cells, PMA-induced cells or plasma membranes) (human); test: 125I-SLPI saturation binding, intact U937 cells, *SLPI at 20,480 pM
[2] = target: SLPI binding sites on HuT78 cells (human T cell line) (human); test: competition with 125I-SLPI, intact HuT78 cells, cold SLPI at 84 nM
[3] = target: SLPI binding sites on U937 cells (human monocyte cell line; intact cells, PMA-induced cells or plasma membranes) (human); test: competition with 125I-SLPI, intact U937 cells, cold SLPI at 0.024 nM
[4] = target: SLPI binding sites on HuT78 cells (human T cell line) (human); test: 125I-SLPI saturation binding, intact HuT78 cells, *SLPI at 40 pM
[5] = target: SLPI binding sites on HuT78 cells (human T cell line) (human); test: competition with 125I-SLPI, intact HuT78 cells, competitor at 0.80 nM
[6] = target: SLPI binding sites on HuT78 cells (human T cell line) (human); test: 125I-SLPI saturation binding, intact HuT78 cells, *SLPI at 1280 pM
[7] = target: SLPI binding sites on U937 cells (human monocyte cell line; intact cells, PMA-induced cells or plasma membranes) (human); test: competition with 125I-SLPI, U937 plasma membranes, competitor at 2750 nM
[8] = target: SLPI binding sites on HuT78 cells (human T cell line) (human); test: competition with 125I-SLPI, intact HuT78 cells, competitor at 84 nM
[9] = target: SLPI binding sites on HuT78 cells (human T cell line) (human); test: 125I-SLPI saturation binding, intact HuT78 cells, *SLPI at 320 pM
[10] = target: SLPI binding sites on HuT78 cells (human T cell line) (human); test: 125I-SLPI saturation binding, intact HuT78 cells, *SLPI at 80 pM
[11] = target: SLPI binding sites on HuT78 cells (human T cell line) (human); test: competition with 125I-SLPI, intact HuT78 cells, cold SLPI at 0.80 nM
[12] = target: SLPI binding sites on U937 cells (human monocyte cell line; intact cells, PMA-induced cells or plasma membranes) (human); test: competition with 125I-SLPI, intact U937 cells, Kd by Cheng-Prusoff
[13] = target: SLPI binding sites on HuT78 cells (human T cell line) (human); test: competition with 125I-SLPI, intact HuT78 cells, competitor at 0 nM
[14] = target: SLPI binding sites on U937 cells (human monocyte cell line; intact cells, PMA-induced cells or plasma membranes) (human); test: competition with 125I-SLPI, intact U937 cells, cold SLPI at 0.25 nM
[15] = target: SLPI binding sites on U937 cells (human monocyte cell line; intact cells, PMA-induced cells or plasma membranes) (human); test: 125I-SLPI saturation binding, U937 cells minus PMA, *SLPI at 20,480 pM
[16] = target: SLPI binding sites on U937 cells (human monocyte cell line; intact cells, PMA-induced cells or plasma membranes) (human); test: competition with 125I-SLPI, intact U937 cells, competitor at 0.25 nM
[17] = target: SLPI binding sites on U937 cells (human monocyte cell line; intact cells, PMA-induced cells or plasma membranes) (human); test: 125I-SLPI saturation binding, U937 cells minus PMA, *SLPI at 1280 pM
[18] = target: SLPI binding sites on HuT78 cells (human T cell line) (human); test: 125I-SLPI saturation binding, intact HuT78 cells, *SLPI at 160 pM
[19] = target: SLPI binding sites on HuT78 cells (human T cell line) (human); test: competition with 125I-SLPI, intact HuT78 cells, competitor at 2750 nM
[20] = target: SLPI binding sites on U937 cells (human monocyte cell line; intact cells, PMA-induced cells or plasma membranes) (human); test: 125I-SLPI saturation binding, intact U937 cells, *SLPI at 80 pM
[21] = target: SLPI binding sites on U937 cells (human monocyte cell line; intact cells, PMA-induced cells or plasma membranes) (human); test: 125I-SLPI saturation binding, U937 cells minus PMA, *SLPI at 2560 pM
[22] = target: SLPI binding sites on HuT78 cells (human T cell line) (human); test: 125I-SLPI saturation binding, intact HuT78 cells, *SLPI at 10,240 pM
[23] = target: SLPI binding sites on U937 cells (human monocyte cell line; intact cells, PMA-induced cells or plasma membranes) (human); test: competition with 125I-SLPI, intact U937 cells, competitor at 860 nM
[24] = target: SLPI binding sites on U937 cells (human monocyte cell line; intact cells, PMA-induced cells or plasma membranes) (human); test: competition with 125I-SLPI, intact U937 cells, competitor at 8.2 nM
[25] = target: SLPI binding sites on HuT78 cells (human T cell line) (human); test: competition with 125I-SLPI, intact HuT78 cells, competitor at 2.6 nM
[26] = target: SLPI binding sites on HuT78 cells (human T cell line) (human); test: 125I-SLPI saturation binding, intact HuT78 cells, *SLPI at 20,480 pM

serine leukocyte protease inhibitor (SLPI), sequence (P03973 26-132): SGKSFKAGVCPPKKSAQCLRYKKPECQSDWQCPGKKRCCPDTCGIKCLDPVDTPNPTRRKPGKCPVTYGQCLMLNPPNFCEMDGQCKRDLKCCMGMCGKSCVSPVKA

“serine leukocyte protease inhibitor (SLPI) (from UniProt P03973 26-132)” was tested, and the bound *SLPI (pM) [1] was 471 pM, the bound per free [1] was 0.024 and the sites bound per cell (sites per cell) [1] was 28400. The specific cpm [1] was 18800 cpm, the % *SLPI BOUND [2] was 9.3% and the % *SLPI BOUND [3] was 100%. For the same substance, the specific cpm [4] was 0 cpm, the % *SLPI BOUND [5] was 79% and the bound pM [6] was 7.6 pM. For the same substance, the bound per free [6] was 0.0059, the sites bound per cell (sites per cell) [6] was 458 and the specific cpm [6] was 303 cpm. It also gave a CPM *SLPI BOUND [7] of 1680 cpm, a % *SLPI BOUND [8] of 27% and a bound pM [9] of 2.53 pM. The bound per free [9] was 0.0079, the sites bound per cell (sites per cell) [9] was 152 and the specific cpm [9] was 101 cpm. The bound pM [10] was 0.75 pM, the bound per free [10] was 0.0095 and the sites bound per cell (sites per cell) [10] was 45. For the same substance, the specific cpm [10] was 30 cpm, the % *SLPI BOUND [11] was 62% and the Kd [12] was 2 nM. The % *SLPI BOUND [13] was 100%, the % *SLPI BOUND [14] was 92% and the bound *SLPI (pM) [15] was 915 pM. It also gave a bound per free [15] of 0.047, a sites bound per cell (sites per cell) [15] of 55100 and a specific cpm [15] of 9780 cpm. The % *SLPI BOUND [16] was 106%, the bound *SLPI (pM) [17] was 396 pM and the bound per free [17] was 0.448. For the same substance, the sites bound per cell (sites per cell) [17] was 23900, the specific cpm [17] was 4230 cpm and the bound pM [18] was 0.93 pM. It also gave a bound per free [18] of 0.0058, a sites bound per cell (sites per cell) [18] of 56 and a specific cpm [18] of 37 cpm. The % *SLPI BOUND [19] was 0%, the bound *SLPI (pM) [20] was 13.6 pM and the bound per free [20] was 0.205. The sites bound per cell (sites per cell) [20] was 819, the specific cpm [20] was 543 cpm and the bound *SLPI (pM) [21] was 593 pM. For the same substance, the bound per free [21] was 0.301, the sites bound per cell (sites per cell) [21] was 35700 and the specific cpm [21] was 6340 cpm. It also gave a bound pM [22] of 32.7 pM, a bound per free [22] of 0.0032 and a sites bound per cell (sites per cell) [22] of 1970. For the same substance, the specific cpm [22] was 1300 cpm, the % *SLPI BOUND [23] was 4% and the % *SLPI BOUND [24] was 22%. The % *SLPI BOUND [25] was 76%, the bound pM [26] was 30.3 pM and the bound per free [26] was 0.0015. For the same substance, the sites bound per cell (sites per cell) [26] was 1820 and the specific cpm [26] was 1210 cpm.
